# Data taken from patent publication US20250051449A1 (SURFACE ONCOLOGY, published 2025).
# Substitutions are numbered along the chain they refer to.
# T1: human CD112R expressed on Jurkat cells (human, UniProt Q6DKI7 1-326)
# T1 construct: whole, on cells; Used for both Jurkat-CD112R OE cells and wild type Jurkat cells; which cells is said under assay; also called PVRIG; Jurkat-CD112R OE
# T1 sequence (looked up): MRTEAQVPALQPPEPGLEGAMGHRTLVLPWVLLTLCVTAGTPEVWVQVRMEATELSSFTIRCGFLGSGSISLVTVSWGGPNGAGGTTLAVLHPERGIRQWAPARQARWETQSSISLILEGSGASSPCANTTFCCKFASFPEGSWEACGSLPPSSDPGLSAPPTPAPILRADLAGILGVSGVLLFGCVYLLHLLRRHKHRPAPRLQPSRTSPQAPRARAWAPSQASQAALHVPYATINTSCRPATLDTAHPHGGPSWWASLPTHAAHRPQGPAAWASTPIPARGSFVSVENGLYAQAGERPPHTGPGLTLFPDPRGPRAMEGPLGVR
# T2: CD112R-hIgG4 fusion protein (human, UniProt Q6DKI7 41-171, limits assumed)
# T2 construct: also called human CD112R-hIgG4; not shown: human IgG4 portion (hIgG4)
# T2 sequence (looked up): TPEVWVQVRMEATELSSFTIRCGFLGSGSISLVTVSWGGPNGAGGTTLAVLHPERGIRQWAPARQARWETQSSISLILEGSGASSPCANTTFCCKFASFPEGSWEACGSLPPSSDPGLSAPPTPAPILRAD
# B1: Antibody 44 (antibody, V domains shown)
# VH: QVQLVQSGAEVKKPGSSVKVSCKASGGTFDNYYISWVRQAPGQGLEWMGGIFPIFGTANYAQKFQGRVTITADESTSTAYMELSSLRSEDTAVYYCAREVGHYSGSPYYMDVWGKGTTVTVSS
# VL: DIQMTQSPSTLSASVGDRVTITCRASQSINSWLAWYQQKPGKAPKLLISDASSLESGVPSRFSGSGSGTEFTLTISSLQPDDFATYYCQQVGPYLTFGGGTKVEIK
# notes: Purified as IgG; compared with an IgG1 isotype control and detected with anti-human IgG Fc; also called antibody clone number 44; clone 44
# B2: Antibody 15 (antibody, V domains shown)
# VH: EVQLVESGGGLVQPGRSLRLSCTASGFTFGDVAMSWFRQAPGKGLEWVGYIGSKAYGGETEYTASVKGRFTISRDGSKSIAYLQMNSLKTEDTAVYYCARAGHSYGSIASNWFDPWGQGTLVTVSS
# VL: DIQMTQSPSSLSASVGDRVTITCRASQSISSYLNWYQQKPGKAPKLLIYGASSLQSGVPSRFSGSGSGTDFTLTISSLQPEDFATYYCQQGFYTPWTFGGGTKVEIK
# notes: Purified as IgG; compared with an IgG1 isotype control and detected with anti-human IgG Fc; also called antibody clone number 15; clone 15
# B3: Antibody 38 (antibody, V domains shown)
# VH: EVQLLESGGGLVQPGGSLRLSCAASGFTFSGHLMSWVRQAPGKGLEWVSAISGSAGETYYADSVKGRFTISRDNSKNTLYLQMNSLRAEDTAVYYCARDAYYDDWSGWADWYFDLWGRGTLVTVSS
# VL: EIVLTQSPATLSLSPGERATLSCRASQSVSRYLAWYQQKPGQAPRLLIYDASNRATGIPARFSGSGSGTDFTLTISSLEPEDFAVYYCQQVSLLPPTFGGGTKVEIK
# notes: Purified as IgG; compared with an IgG1 isotype control and detected with anti-human IgG Fc; also called antibody clone number 38; clone 38
# B4: Antibody 10 (antibody, V domains shown)
# VH: EVQLVESGGGLVQPGRSLRLSCAASGFTFDDYAVHWVRQAPGKGLEWVSGISWSSGLIGYADSVKGRFTISRDNAKNSLYLQMNSLRAEDTAVYYCAKGPPTYQDYFDLWGRGTLVTVSS
# VL: EIVLTQSPATLSLSPGERATLSCRASQSVSRYLAWYQQKPGQAPRLLIYDASNRATGIPARFSGSGSGTDFTLTISSLEPEDFAVYYCQQVSFFPPITFGGGTKVEIK
# notes: Purified as IgG; compared with an IgG1 isotype control and detected with anti-human IgG Fc; also called antibody clone number 10; clone 10
# B5: Antibody 2 (antibody, V domains shown)
# VH: EVQLVESGGGLVKPGGSLRLSCAASGFTFSEYTMNWVRQAPGKGLEWVSAIVGSGDSTYYADSVKGRFTISRDNSKNTLYLQMNSLRAEDTAVYYCAKDYSSGDWIDYGMDVWGQGTTVTVSS
# VL: DIQMTQSPSSLSASVGDRVTITCQASQDISNYLNWYQQKPGKAPKLLIYDASNLATGVPSRFSGSGSGTDFTFTISSLQPEDIATYYCQQFDLLPPTFGGGTKVEIK
# notes: Purified as IgG; compared with an IgG1 isotype control and detected with anti-human IgG Fc; also called antibody clone number 2; clone 2
# B6: Antibody 5 (antibody, V domains shown)
# VH: B5 VH with V5L, K13Q, E31D, T33A, N35I, V52S, S54G, D56E
# VL: B5 VL
# notes: Purified as IgG; compared with an IgG1 isotype control and detected with anti-human IgG Fc; also called antibody clone number 5; clone 5
# Molecular target: T1, human CD112R expressed on Jurkat cells
# Assay: flow cytometry competition on Jurkat-CD112R OE cells; competitor biotinylated his-tagged human CD112
# Description: The ability of anti-CD112R antibodies to block CD112 binding to CD112R expressing cells was evaluated. 1×10⁵ Jurkat cells (acute T cell leukemia cell line, ATCC #TIB-152) that were engineered to over-express human CD112R (Jurkat-CD112R OE) were added to each well of a 96-well V bottom plate and stained with serial dilutions of either anti-CD112R antibodies or an IgG1 isotype control (highest concentration, 10 μg/mL) for 1 hour at 4° C. Cells were washed twice with PBS+2% FCS and resuspended with biotinylated his-tagged human CD112 (3 μg/mL) (BPS Bioscience, #71234) and PE Streptavidin (5 μg/mL) (Biolegend, #405204) in PBS+2% FCS and incubated at 2 hours at 4° C. Cells were subsequently washed twice and resuspended in PBS+2% FCS. Cellular data was acquired using a LSRFortessa X-20 (BD Biosciences) and analyzed with FlowJo software (Tree Star).
# Results are depicted in FIG. 2A and Table 2. […] Percent inhibition was calculated as [100−((test sample MFI/Max MFI)*100%)]
Binder,CD112 blocking max inhibition (%),IC50 [ng/mL]
B1,97.7,0.81
B2,97.9,0.51
B3,95.5,0.19
B4,96.8,0.69
B5,94.1,0.83
B6,97,0.17

# Molecular target: T2, CD112R-hIgG4 fusion protein
# Assay: blocking ELISA: coated CD112R-hIgG4, antibody, then biotinylated CD112 Fc
# Description: The ability of anti-CD112R antibodies to block human CD112R was also evaluated by ELISA. Briefly, 96 well Nunc Maxisorp plates were coated with 1 μg/mL of a CD112R-hIgG4 fusion protein in PBS overnight at 4° C. […] After blocking, plates were washed 6× with PBST. Next, 100 μl of anti-CD112R antibodies in PBS+1% BSA was added at a final starting concentration of 10 μg/mL, with 4-fold serial dilutions. Plates were incubated at room temperature for 1.5 hours. Next plates were washed 6× with PBST and then incubated with 1 μg/ml CD112 Fc protein (R&D Systems, Cat #9317-N2-050) that was biotinylated with a sulfo-NHS biotinylation kit (Thermo Fisher, Cat #21925) in 100 μl of PBS+1% BSA for 1 hour at room temperature. Plates were then washed 6× with PBST and subsequently incubated with streptavidin-HRP (Biolegend, Cat #405210) diluted in PBS+1% BSA according to the manufacturer recommendation for 1 hour at room temperature. Following this incubation, plates were then washed 6× with PBST and developed with TMB substrate (Life Technologies, Cat #002023). The reaction was stopped with an equal volume of stop solution (Life Technologies, Cat #SS04). Absorbance at 450 nm (O.D. 450) was measured on a SpectraMax plate reader.
# Results are depicted in FIG. 2B and Table 2. […] Percent inhibition was calculated as [100−((test sample O.D. 450/Max 0.D. 450)*100%)] Max O.D. 450 was defined as absorbance at 450 nm in the absence of antibody.
row,Binder,CD112 blocking max inhibition ELISA (%)
1,B1,96.8
2,B2,97
3,B3,97.2
4,B4,96.3
5,B5,97
6,B6,97.4

# Molecular target: T1, human CD112R expressed on Jurkat cells
# Assay: flow cytometry, Jurkat cells over-expressing human CD112R, 0.63 ug/mL antibody
# Description: (§1) The ability of anti-CD112R antibodies to bind to CD112R expressed on cells was evaluated. 1×10⁵ Jurkat cells (acute T cell leukemia cell line, ATCC #TIB-152) that were either wild type or engineered to over-express human CD112R (Jurkat-CD112R OE) were added to each well of a 96-well V bottom plate and stained with either anti-CD112R antibodies or an IgG1 isotype control (0.63 μg/mL) for 1 hour at 4° C. Cells were washed twice with PBS+2% FCS and resuspended with Alexa Fluor® 647 anti-human IgG Fc antibody (Biolegend, Cat #409320) diluted 1:100 in PBS+2% FCS and incubated at 4° C. for 30 minutes. Cells were subsequently washed twice and resuspended in PBS+2% FCS. Cellular data was acquired using a LSRFortessa X-20 (BD Biosciences) and analyzed with FlowJo software (Tree Star).
# Results are depicted in FIG. 1. Quantitation of antibody binding to Jurkat-CD112R OE cells was assessed by the geometric mean fluorescent intensity (gMFI) of the Alexa Fluor® 647 signal.
row,Binder,gMFI (fold increase over isotype)
1,B1,46.9 fold increase over isotype
2,B2,53.2 fold increase over isotype
3,B3,51.7 fold increase over isotype
4,B4,55.7 fold increase over isotype
5,B5,63.9 fold increase over isotype
6,B6,63.3 fold increase over isotype

# Molecular target: T1, human CD112R expressed on Jurkat cells
# Assay: flow cytometry, wild type Jurkat cells, 0.63 ug/mL antibody
# Description: as §1
row,Binder,gMFI (fold increase over isotype)
1,B1,4.8 fold increase over isotype
2,B2,4 fold increase over isotype
3,B3,3.8 fold increase over isotype
4,B4,4.6 fold increase over isotype
5,B5,4.7 fold increase over isotype
6,B6,3.8 fold increase over isotype
